# B1: FLAG-tagged DND1 wild-type (Dead End, full-length human protein 1-353) [human] / RNA helicase MOV10 [human (endogenous in HEK293T)] (parent)
# chain 1: MQSKRDCELWCERVNPENKAALEAWVRETGIRLVQVNGQRKYGGPPPGWVGSPPPAGSEVFIGRLPQDVYEHQLIPLFQRVGRLYEFRLMMTFSGLNRGFAYARYSSRRGAQAAIATLHNHPLRPSCPLLVCRSTEKCELSVDGLPPNLTRSALLLALQPLGPGLQEARLLPSPGPAPGQIALLKFSSHRAAAMAKKALVEGQSHLCGEQVAVEWLKPDLKQRLRQQLVGPFLRSPQPEGSQLALARDKLGFQGARATLQLLCQRMKLGSPVFLTKCLGIGPAGWHRFWYQVVIPGHPVPFSGLIWVVLTLDGRDGHEVAKDAVSVRLLQALSESGANLLWSAGAEAGTMVKQ
# chain 2: MPSKFSCRQLREAGQCFESFLVVRGLDMETDRERLRTIYNRDFKISFGTPAPGFSSMLYGMKIANLAYVTKTRVRFFRLDRWADVRFPEKRRMKLGSDISKHHKSLLAKIFYDRAEYLHGKHGVDVEVQGPHEARDGQLLIRLDLNRKEVLTLRLRNGGTQSVTLTHLFPLCRTPQFAFYNEDQELPCPLGPGECYELHVHCKTSFVGYFPATVLWELLGPGESGSEGAGTFYIARFLAAVAHSPLAAQLKPMTPFKRTRITGNPVVTNRIEEGERPDRAKGYDLELSMALGTYYPPPRLRQLLPMLLQGTSIFTAPKEIAEIKAQLETALKWRNYEVKLRLLLHLEELQMEHDIRHYDLESVPMTWDPVDQNPRLLTLEVPGVTESRPSVLRGDHLFALLSSETHQEDPITYKGFVHKVELDRVKLSFSMSLLSRFVDGLTFKVNFTFNRQPLRVQHRALELTGRWLLWPMLFPVAPRDVPLLPSDVKLKLYDRSLESNPEQLQAMRHIVTGTTRPAPYIIFGPPGTGKTVTLVEAIKQVVKHLPKAHILACAPSNSGADLLCQRLRVHLPSSIYRLLAPSRDIRMVPEDIKPCCNWDAKKGEYVFPAKKKLQEYRVLITTLITAGRLVSAQFPIDHFTHIFIDEAGHCMEPESLVAIAGLMEVKETGDPGGQLVLAGDPRQLGPVLRSPLTQKHGLGYSLLERLLTYNSLYKKGPDGYDPQFITKLLRNYRSHPTILDIPNQLYYEGELQACADVVDRERFCRWAGLPRQGFPIIFHGVMGKDEREGNSPSFFNPEEAATVTSYLKLLLAPSSKKGKARLSPRSVGVISPYRKQVEKIRYCITKLDRELRGLDDIKDLKVGSVEEFQGQERSVILISTVRSSQSFVQLDLDFNLGFLKNPKRFNVAVTRAKALLIIVGNPLLLGHDPDWKVFLEFCKENGGYTGCPFPAKLDLQQGQNLLQGLSKLSPSTSGPHSHDYLPQEREGEGGLSLQVEPEWRNEL
# B2: FLAG-tagged DND1 wild-type (Dead End, full-length human protein 1-353) [human] / HNRNPC [human (endogenous in HEK293T)] (parent)
# chain 1: B1 chain 1
# chain 2: MASNVTNKTDPRSMNSRVFIGNLNTLVVKKSDVEAIFSKYGKIVGCSVHKGFAFVQYVNERNARAAVAGEDGRMIAGQVLDINLAAEPKVNRGKAGVKRSAAEMYGSVTEHPSPSPLLSSSFDLDYDFQRDYYDRMYSYPARVPPPPPIARAVVPSKRQRVSGNTSRRGKSGFNSKSGQRGSSKSGKLKGDDLQAIKKELTQIKQKVDSLLENLEKIEKEQSKQAVEMKNDKSEEEQSSSSVKKDETNVKMESEGGADDSAEEGDLLDDDDNEDRGDDQLELIKDDEKEAEEGEDDRDSANGEDDS
# B3: FLAG-tagged DND1 wild-type (Dead End, full-length human protein 1-353) [human] / DHX30 [human (endogenous in HEK293T)] (parent)
# chain 1: B1 chain 1
# chain 2: MFSLDSFRKDRAQHRQRQCKLPPPRLPPMCVNPTPGGTISRASRDLLKEFPQPKNLLNSVIGRALGISHAKDKLVYVHTNGPKKKKVTLHIKWPKSVEVEGYGSKKIDAERQAAAAACQLFKGWGLLGPRNELFDAAKYRVLADRFGSPADSWWRPEPTMPPTSWRQLNPESIRPGGPGGLSRSLGREEEEDEEEELEEGTIDVTDFLSMTQQDSHAPLRDSRGSSFEMTDDDSAIRALTQFPLPKNLLAKVIQIATSSSTAKNLMQFHTVGTKTKLSTLTLLWPCPMTFVAKGRRKAEAENKAAALACKKLKSLGLVDRNNEPLTHAMYNLASLRELGETQRRPCTIQVPEPILRKIETFLNHYPVESSWIAPELRLQSDDILPLGKDSGPLSDPITGKPYVPLLEAEEVRLSQSLLELWRRRGPVWQEAPQLPVDPHRDTILNAIEQHPVVVISGDTGCGKTTRIPQLLLERYVTEGRGARCNVIITQPRRISAVSVAQRVSHELGPSLRRNVGFQVRLESKPPSRGGALLFCTVGILLRKLQSNPSLEGVSHVIVDEVHERDVNTDFLLILLKGLQRLNPALRLVLMSATGDNERFSRYFGGCPVIKVPGFMYPVKEHYLEDILAKLGKHQYLHRHRHHESEDECALDLDLVTDLVLHIDARGEPGGILCFLPGWQEIKGVQQRLQEALGMHESKYLILPVHSNIPMMDQKAIFQQPPVGVRKIVLATNIAETSITINDIVHVVDSGLHKEERYDLKTKVSCLETVWVSRANVIQRRGRAGRCQSGFAYHLFPRSRLEKMVPFQVPEILRTPLENLVLQAKIHMPEKTAVEFLSKAVDSPNIKAVDEAVILLQEIGVLDQREYLTTLGQRLAHISTDPRLAKAIVLAAIFRCLHPLLVVVSCLTRDPFSSSLQNRAEVDKVKALLSHDSGSDHLAFVRAVAGWEEVLRWQDRSSRENYLEENLLYAPSLRFIHGLIKQFSENIYEAFLVGKPSDCTLASAQCNEYSEEEELVKGVLMAGLYPNLIQVRQGKVTRQGKFKPNSVTYRTKSGNILLHKSTINREATRLRSRWLTYFMAVKSNGSVFVRDSSQVHPLAVLLLTDGDVHIRDDGRRATISLSDSDLLRLEGDSRTVRLLKELRRALGRMVERSLRSELAALPPSVQEEHGQLLALLAELLRGPCGSFDVRKTADD
# Variants of: B1
# Test: FLAG immunoprecipitation and LC/ESI-MS/MS
# Details: with RNA helicase MOV10 [human (endogenous in HEK293T)]; HEK293T cells, three biological replicates; read off a plot
row,screen value,Variant
1,-3.2,chain 1 MQSKRDCELWCERVNPENKAALEAWVRETGIRLVQVNGQRKYGGPPPGWVGSPPPAGSEVFIGRLPQDVYEHQLIPLFQRVGRLYEFRLMMTFSGLNAGFAYARYSSRRGAQAAIATLHNHPLRPSCPLLVCRSTEKCELSVDGLPPNLTRSALLLALQPLGPGLQEARLLPSPGPAPGQIALLKFSSHRAAAMAKKALVEGQSHLCGEQVAVEWLKPDLKQRLRQQLVGPFLRSPQPEGSQLALARDKLGFQGARATLQLLCQRMKLGSPVFLTKCLGIGPAGWHRFWYQVVIPGHPVPFSGLIWVVLTLDGRDGHEVAKDAVSVRLLQALSESGANLLWSAGAEAGTMVKQ [chain 1 R98A]

# Variants of: B2
# Test: FLAG immunoprecipitation and LC/ESI-MS/MS
# Details: with HNRNPC [human (endogenous in HEK293T)]; HEK293T cells, three biological replicates; read off a plot
row,screen value,Variant
1,-0.8,chain 1 R98A

# Variants of: B3
# Test: FLAG immunoprecipitation and LC/ESI-MS/MS
# Details: with DHX30 [human (endogenous in HEK293T)]; HEK293T cells, three biological replicates; read off a plot
row,screen value,Variant
1,-2.3,chain 1 MQSKRDCELWCERVNPENKAALEAWVRETGIRLVQVNGQRKYGGPPPGWVGSPPPAGSEVFIGRLPQDVYEHQLIPLFQRVGRLYEFRLMMTFSGLNAGFAYARYSSRRGAQAAIATLHNHPLRPSCPLLVCRSTEKCELSVDGLPPNLTRSALLLALQPLGPGLQEARLLPSPGPAPGQIALLKFSSHRAAAMAKKALVEGQSHLCGEQVAVEWLKPDLKQRLRQQLVGPFLRSPQPEGSQLALARDKLGFQGARATLQLLCQRMKLGSPVFLTKCLGIGPAGWHRFWYQVVIPGHPVPFSGLIWVVLTLDGRDGHEVAKDAVSVRLLQALSESGANLLWSAGAEAGTMVKQ [chain 1 R98A]

# Source: paper PMC9537309
